# Data from patent US20240182547A1 (MOGAM INSTITUTE FOR BIOMEDICAL RESEARCH, published 2024).
# Numbering of substitutions follows the chain as printed.
# B1: #46m (antibody, V domains shown)
# VH: QVQLVQSGPEVKKPGSSVKVSCKASGYTFTDYGLSWVRQAPGHGLEWMGWITAYNGDTNYAQKFQDRLSVTTDISTSTAYMELRSLKSDDTAVYYCARHVFCSGDGCYSGLGSWGQGTLVTVSS
# VL: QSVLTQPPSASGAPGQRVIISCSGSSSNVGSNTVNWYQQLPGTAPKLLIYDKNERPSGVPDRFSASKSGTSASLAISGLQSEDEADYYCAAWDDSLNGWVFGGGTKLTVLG
# notes: Germline-edited (m) form of 2E8, light chain edited; IgG; also called 2E8 (modified)
# B2: 13H9 (antibody, V domains shown)
# VH: QVQLVQSGAEVKKPGASVKVSCKASGYTGYTFTDYGLSWVRQAPGHGLEWMGWITAYNGDTNYAQKFQDRLSVTTDISTSTAYMELRSLKSDDTAVYYCARHVFCSGDGCYSGLGSWGQGTLVTVSS
# VL: SYELIQPPSASGAPGQRVIISCSGSSSNVGSNTVNWYQQLPGTAPKLLIYDKNERPSGVPDRFSASKSGTSASLAISGLQSEDEADYYCAAWDDSLNGWVFGGGTELTVLG
# notes: IgG made in Expi293; also called #47; 47
# B3: #47m (antibody, V domains shown)
# VH: B2 VH
# VL: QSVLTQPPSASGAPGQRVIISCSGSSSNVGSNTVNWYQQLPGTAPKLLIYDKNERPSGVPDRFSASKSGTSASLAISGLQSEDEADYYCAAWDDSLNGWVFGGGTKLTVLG
# notes: Germline-edited (m) form of 13H9, light chain edited; IgG; also called 13H9 (modified)
# B4: 4E9 (antibody, V domains shown)
# VH: B1 VH with P9A
# VL: QSVLTQPPSVSGAPGQRVTISCSGSSSNVGSNTVNWYQQLPGTAPKLLIYDKNERPSGVPDRFSASKSGTSSSLAIGGLRSEDEADYYCGTWDDNLNGWVFGGGTKLTVLG
# notes: IgG made in Expi293; also called #48; 48
# B5: 4H7 (antibody, V domains shown)
# VH: B1 VH with P9A, S16A
# VL: B4 VL with Q1S, S2Y, V3E, V10A, T19I, G90A
# notes: IgG made in Expi293; also called #49; 49
# B6: 2E7 (antibody, V domains shown)
# VH: EVQLVESGGGLVKPGGSLRLSCAGSGFTFSSYTMHWVRQAPGKGLEWVSSITGGSSYVDYSASVKGRFTISRDNAQSSLYLQMNSLRAEDTAVYYCARDDYGSGSYSNWFDPWGQGTLVTVSS
# VL: SYELTQPPSASGTPGQRVTISCTGSSSNIGAGYDVHWYQQLPGAAPRLLMFGNSNRPSGVPDRFSGSKSGTSASLAITGLQADDEADYYCQSYDRSLSHVFGTGTKVTVLG
# notes: IgG made in Expi293; also called #6
# B7: #49m (antibody, V domains shown)
# VH: B1 VH with P9A, S16A
# VL: B4 VL with V10A, T19I, G90A
# notes: Germline-edited (m) form of 4H7, light chain edited; IgG; also called 4H7 (modified)
# B8: #50m (antibody, V domains shown)
# VH: B1 VH with P9A, S16A
# VL: B4 VL with V10A, T19I
# notes: Germline-edited (m) form of 2F8, light chain edited; IgG; also called 2F8 (modified)
# B9: 3E7 (antibody, V domains shown)
# VH: B1 VH with Q1E, Q6E, P9T, S16A
# VL: B4 VL with V10A, T19I
# notes: IgG made in Expi293; also called #51; 51
# B10: #51m (antibody, V domains shown)
# VH: B1 VH with Q1E, P9A, S16A
# VL: B4 VL with V10A, T19I
# notes: Germline-edited (m) form of 3E7, heavy chain edited; IgG; also called 3E7 (modified)
# B11: 9H4 (antibody, V domains shown)
# VH: QVQLVQSGGGLVQPGGSLRISCTASGFTFRNYEMNWVRQAPGKGLEWVAYISSSGSSRYYADSVKGRFTISRDNAKNSLFLQMNSLRAEDMAVYYCARTDDGSSWFVSTSSFYGMDVWGQGTTVTVSS
# VL: EIVLTQSPGIQSLSPGETATLSCRASESISSSYFAWYQQKPGQAPRLLIYGASSRASGIPDRFSGSGSGTDFTLTISRLEPEDFAVYYCQQYGSSPPITFGQGTRLEIKR
# notes: IgG made in Expi293; also called #52; 52
# B12: #52m (antibody, V domains shown)
# VH: B11 VH with Q6E
# VL: B11 VL
# notes: Germline-edited (m) form of 9H4, heavy chain edited; IgG; also called 9H4 (modified)
# B13: 5E9 (antibody, V domains shown)
# VH: QVQLVQSGPEVKKPGSSVKVSCKASGYTFGHYGISWVRQAPGQGLEWMAWISAYNGNTDSIQKVQGRVTMTTDTSTNTAYLELRSLRSDDTAVYYCVRDVPATGGAATADYWGQGTTVTVSS
# VL: DVVMTQSPLSLPVTLGQPASISCRSSQSLVFSDGNTYLSWFQQRPGQSPRRLIYKVSNRDSGVPDRFSASGSGTDFTLKISRVEADDVGVYYCMQVTHWPRTFGQGTRLEIKR
# notes: IgG made in Expi293; also called #60; 60
# B14: 5C9 (antibody, V domains shown)
# VH: B13 VH with P9S, S16A
# VL: B13 VL with R108K
# notes: IgG made in Expi293; also called #61; 61
# B15: #6m (antibody, V domains shown)
# VH: B6 VH
# VL: B6 VL with S1Q, Y2S, E3V
# notes: Germline-edited (m) form of 2E7, light chain edited; IgG; also called 2E7 (modified)
# B16: 5C7 (antibody, V domains shown)
# VH: B13 VH with V5Q, P9S, S16A, T117L
# VL: B13 VL with T14P, F31H, N58D, A69G, D86E
# notes: IgG made in Expi293; also called #62; 62
# B17: #62m (antibody, V domains shown)
# VH: B13 VH with P9A, S16A, T117L
# VL: B13 VL with T14P, F31H, N58D, A69G, D86E
# notes: Germline-edited (m) form of 5C7, heavy chain edited; IgG; also called 5C7 (modified)
# B18: 8A11 (antibody, V domains shown)
# VH: B13 VH with P9S, S16A, T117L
# VL: B13 VL with R24K, Q27R, F31H, R108K
# notes: IgG made in Expi293; also called #63; 63
# B19: D25 (antibody, V domains shown)
# VH: QVQLVQSGAEVKKPGSSVMVSCQASGGPLRNYIINWLRQAPGQGPEWMGGIIPVLGTVHYAPKFQGRVTITADESTDTAYIHLISLRSEDTAMYYCATETALVVSTTYLPHYFDNWGQGTLVTVSS
# VL: DIQMTQSPSSLSAAVGDRVTITCQASQDIVNYLNWYQQKPGKAPKLLIYVASNLETGVPSRFSGSGSGTDFSLTISSLQPEDVATYYCQQYDNLPLTFGGGTKVEIK
# B20: 2H2 (antibody, V domains shown)
# VH: B6 VH with E1Q, E6Q, V12I, K13Q
# VL: QSVLTQPPSVSGAPGQRVTISCTGSSSNIGAGYDVHWYQQLPGTAPKLLIFANTNRPSGVPDRFSGSKSGASASLAITGLQADDEADYYCQSYDRSLSHVFGTGTKVTVLG
# notes: IgG made in Expi293; also called #7
# B21: 12A1 (antibody, V domains shown)
# VH: B6 VH with V12I, K13Q
# VL: B20 VL with N28D
# notes: IgG made in Expi293; also called #8
# Target: DS-Cav1 (RSV F-protein, pre-form, in-house) (respiratory syncytial virus (RSV), UniProt P03420 26-513)
# Assay: ELISA, coated DS-Cav1, IgG titrated
# DS-Cav1 (RSV F-protein, pre-form, in-house), sequence (P03420 26-524): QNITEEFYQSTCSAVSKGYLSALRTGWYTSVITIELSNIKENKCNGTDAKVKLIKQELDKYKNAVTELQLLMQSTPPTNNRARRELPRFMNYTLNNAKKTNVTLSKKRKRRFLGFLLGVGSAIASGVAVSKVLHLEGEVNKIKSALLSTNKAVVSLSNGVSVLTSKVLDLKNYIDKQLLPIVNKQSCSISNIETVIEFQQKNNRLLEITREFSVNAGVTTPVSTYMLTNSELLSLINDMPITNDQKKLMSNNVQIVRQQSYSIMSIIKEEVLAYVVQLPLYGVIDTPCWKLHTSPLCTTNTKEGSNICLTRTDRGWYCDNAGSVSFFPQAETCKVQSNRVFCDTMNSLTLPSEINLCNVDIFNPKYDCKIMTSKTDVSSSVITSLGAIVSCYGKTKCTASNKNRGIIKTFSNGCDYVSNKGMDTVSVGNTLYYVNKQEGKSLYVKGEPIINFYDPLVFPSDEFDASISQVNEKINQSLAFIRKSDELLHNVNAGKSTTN
row,Binder,Kd [nM]
1,B1,~1.26
2,B2,~0.61
3,B3,~0.94
4,B4,~0.7
5,B5,~2.15
6,B6,~0.4
7,B7,~1.11
8,B8,~1.08
9,B9,~0.37
10,B10,~1.26
11,B11,~0.89
12,B12,~0.89
13,B13,~1.31
14,B14,~0.8
15,B15,~2.34
16,B16,~0.84
17,B17,~1.27
18,B18,~0.69
19,B19,~0.73
20,B20,~0.44
21,B21,~1.66
